Results published in patent publication US20190062420A1 (Janssen / Centocor, published 2019).

T1: human FcγRIIB (NM_004001) expressed on cells (human, UniProt P31994 43-310)
T1 construct: Transiently expressed on Expi293F cells; also called Expi293F FcγRIIB; HEK293F cells expressing FcγRIIB
T1 sequence: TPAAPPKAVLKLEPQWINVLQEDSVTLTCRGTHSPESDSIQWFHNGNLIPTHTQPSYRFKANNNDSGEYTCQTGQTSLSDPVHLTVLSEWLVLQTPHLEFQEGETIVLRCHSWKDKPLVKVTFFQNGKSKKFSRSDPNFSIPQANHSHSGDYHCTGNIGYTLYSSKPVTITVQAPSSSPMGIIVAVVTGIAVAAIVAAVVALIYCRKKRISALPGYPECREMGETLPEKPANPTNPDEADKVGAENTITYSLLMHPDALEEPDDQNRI

T2: human FcγRIIA (NM_021642) expressed on cells (human, UniProt P12318 36-317)
T2 construct: Transiently expressed on Expi293F cells; also used here for FcγRIIA on human macrophages in the ADCP assay; also called Expi293F FcγRIIA; HEK293F cells expressing FcγRIIA
T2 sequence: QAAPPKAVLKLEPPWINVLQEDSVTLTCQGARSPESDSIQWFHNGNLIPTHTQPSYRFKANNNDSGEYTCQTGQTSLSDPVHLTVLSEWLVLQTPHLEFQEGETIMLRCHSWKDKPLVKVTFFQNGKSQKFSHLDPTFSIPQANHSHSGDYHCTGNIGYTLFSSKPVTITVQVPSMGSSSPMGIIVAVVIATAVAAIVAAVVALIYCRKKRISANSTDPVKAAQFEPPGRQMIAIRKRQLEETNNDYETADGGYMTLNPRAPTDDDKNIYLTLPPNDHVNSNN

T3: human OX40 expressed on HEK-Blue: OX40 cells (human, UniProt P43489 29-277)
T3 construct: also called CD134
T3 sequence: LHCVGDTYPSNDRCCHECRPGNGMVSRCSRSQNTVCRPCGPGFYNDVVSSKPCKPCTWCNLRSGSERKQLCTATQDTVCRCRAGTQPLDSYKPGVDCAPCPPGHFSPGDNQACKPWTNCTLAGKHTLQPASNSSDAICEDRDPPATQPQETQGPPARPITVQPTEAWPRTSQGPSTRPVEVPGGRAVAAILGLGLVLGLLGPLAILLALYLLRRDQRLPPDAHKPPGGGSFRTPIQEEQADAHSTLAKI

T4: FcγRIIB protein (human, UniProt P31994 43-217, biotinylated (SureLINK Biotin Kit) in the ELISA of Example 1)
T4 construct: Soluble/recombinant antigen used in ELISA; also called bt-FcγRIIB; recombinant FcγRIIB protein
T4 sequence: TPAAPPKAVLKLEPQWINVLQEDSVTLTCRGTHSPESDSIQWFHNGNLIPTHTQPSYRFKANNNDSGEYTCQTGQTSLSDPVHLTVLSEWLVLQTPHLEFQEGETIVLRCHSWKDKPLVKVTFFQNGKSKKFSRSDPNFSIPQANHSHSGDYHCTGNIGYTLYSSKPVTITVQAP

T5: FcγRIIA protein (human, UniProt P12318 36-217, biotinylated (SureLINK Biotin Kit) in the ELISA of Example 1)
T5 construct: Soluble/recombinant antigen used in ELISA; also called bt-FcγRIIA; recombinant FcγRIIA protein
T5 sequence: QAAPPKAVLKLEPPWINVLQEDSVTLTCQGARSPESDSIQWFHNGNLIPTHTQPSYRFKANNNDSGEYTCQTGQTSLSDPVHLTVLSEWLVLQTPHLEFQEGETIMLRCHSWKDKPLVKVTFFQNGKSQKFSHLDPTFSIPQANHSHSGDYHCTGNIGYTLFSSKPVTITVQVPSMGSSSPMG


Tests used:
[1] = biological target: T1, human FcγRIIB (NM_004001) expressed on …; assay: flow cytometry; Raji cells (express predominantly FcγRIIB)
[2] = biological target: T2, human FcγRIIA (NM_021642) expressed on …; assay: flow cytometry; Expi293F cells transfected with FcγRIIA
Description: (§1) Plasmids expressing cDNAs encoding human FcγRI (NM_000566) (SEQ ID NO: 44), FcγRIIA (NM_021642) (SEQ ID NO: 2), FcγRIIB (NM_004001) (SEQ ID NO: 3), and FcγRIIIA (NM_000569) (SEQ ID NO: 45) (Origene) were transiently transfected into Expi293F cells by ExpiFectamine293 transfection kit (Life Technologies). Flow cytometry assays were performed 48 h after transfection.
(§2) 2×10⁵ cells per well were seeded in 96-well plate and blocked in BSA Stain Buffer (BD Biosciences, San Jose, USA) for 30 min at 4° C. Cells were incubated with test mAbtyrin on ice for 1.5 h at 4° C. After being washed twice with BSA stain buffer, the cells were incubated with R-PE labeled anti-human or anti-mouse IgG secondary antibody (Jackson Immunoresearch Laboratories) for 45 min at 4° C. The cells were washed twice in stain buffer and then resuspended in 150 μL of Stain Buffer containing 1:200 diluted DRAQ7 live/dead stain (Cell Signaling Technology, Danvers, USA). PE and DRAQ7 signals of the stained cells were detected by Miltenyi MACSQuant flow cytometer (Miltenyi Biotec, Auburn, USA) using B2 and B4 channel respectively. Live cells were gated on DRAQ7 exclusion and the geometric mean fluorescence signals were determined for at least 10,000 live events collected. FlowJo software (Tree Star) was used for analysis. Data was plotted as the logarithm of antibody concentration versus mean fluorescence signals. Nonlinear regression analysis was performed by GraphPad Prism 6 (GraphPad Software, Inc.) and EC₅₀ values were calculated.

[3] = biological target: T2, human FcγRIIA (NM_021642) expressed on …; assay: cell-based or functional assay
[4] = biological target: T1, human FcγRIIB (NM_004001) expressed on …; assay: cell-based or functional assay
[5] = biological target: T3, human OX40 expressed on HEK-Blue: OX40 …; assay: flow cytometry; HEK-Blue: OX40 cells
Description: as §2
The binding of mAbtyrins on OX40 expressed on cell surface were investigated by flow cytometry assay described for testing mAbtyrin binding to FcγR. A stable HEK-Blue reporter cell line expressing human OX40 (HEK-Blue: OX40) was established by transfection OX40 expression plasmid (pUNO1-hOX40) into HEK-Blue™ Null 1 cells engineered to express a secreted embryonic alkaline phosphatase (SEAP) reporter gene under the control of NF-κB-inducible promoter (IFN-β minimal promoter). mAbtyrins were incubated with HEK-Blue: OX40 cells and the binding was detected by flow cytometry using a PE-labeled Goat F(ab′)₂ against Human IgG(γ).

[6] = biological target: T1, human FcγRIIB (NM_004001) expressed on …; assay: flow cytometry; Raji cells (express predominantly FcγRIIB); remark: listed apart in the source
Description: as §2
Raji cell is a cell line derived from B cells that express predominantly FcγRIIB. The binding of mAbtyrins on Raji cells were investigated by flow cytometry assay described for testing mAbtyrin binding to FcγR. Binding of the mAbtyrins were detected by flow cytometry using a PE-labeled Goat F(ab′) against Human IgG(γ).

[7] = biological target: T1, human FcγRIIB (NM_004001) expressed on …; assay: flow cytometry; Expi293F cells transfected with FcγRIIB
Description: as §1, §2

FcγRIIB protein = biological target: T4, FcγRIIB protein; assay: ELISA; bt-FcγRIIB on streptavidin plate, purified FN3 domain titrated
Description: (§3) For primary ELISA, Maxisorp 96-well plates were loaded with 100 μL per well of streptavidin (Promega; 5 μg/mL in PBS) and then held at 4° C. overnight. The next day, the streptavidin-coated plates were washed 3×TBST and then blocked with 250 μL Starting Block T20 (Pierce-cat#37543). After a 1 h incubation, all plates were washed 3 times with 1×TBST, loaded with 100 μL per well of either bt-FcγRIIA, bt-FcγRIIB, or bt-HSA (negative screen) all at 1 μg/mL, and held at room temperature for 1 h. The previously lysed FN3 domains were centrifuged at 3500 rpm for 10 minutes, diluted 1:10 in Starting Block T20 and added 100 μL each to the plates. After a 1 h incubation at room temperature, the plates were washed 3× with 1×TBST and the wells were loaded with 100 μL of a HRP conjugated rabbit polyclonal antibody against tencon 27. After a final 1 h incubation at room temperature, the plates were washed 3× with 1×TBST, loaded with 100 μL per well of the chemiluminescence substrate POD (Roche), and read in a Perkin Elmer Envision plate reader. Positive binding colonies (those clones showing 5-fold higher binding to FcγRIIA or FcγRIIB when compared to HSA) were subjected to Sanger sequencing and identified coding sequences were in silico translated to amino acid sequences. Sequence unique FN3 domains were expressed in BL21 cells and purified using nickel sepharose plates. Antigen binding of purified FN3 domains in a dilution series was performed. Specifically, in an ELISA format, Streptavidin coated plates (Promega #Z7041) were used to capture 50 μL of 1 μg/mL of either bt-FcγRIIB, bt-FcγRIIA, or as a negative control against sticky FN3 domains bt-HSA. To this FN3 domains were added at 10 μM then diluted 1:5 down to 128 pM, and detected for binding using a HRP conjugated rabbit polyclonal against tencon 27 and POD substrate (Roche #11582950001). Binding curves and EC50 values were calculated using X=log(x) transformation and non-linear regression (curved slope) calculations of Prism GraphPad.

FcγRIIA protein = biological target: T5, FcγRIIA protein; assay: ELISA; bt-FcγRIIA on streptavidin plate, purified FN3 domain titrated
Description: as §3

| Binder | EC50 (FcγRIIB protein) [nM] | EC50 (FcγRIIA protein) [nM] | also measured |
| --- | --- | --- | --- |
| OX40SF2IgG2sigma_R2BS26_HC-C (bispecific antibody, mAbtyrin: anti-OX40 antibody OX40SF2, effector silent IgG2sigma, with linker and R2BS26 FN3 domain at the C-terminus of the heavy chain; also called mAbtyrin) heavy: QVQLVQSGAEVKKPGSSVKVSCKASGYTFKDYTMHWVRQAPGQGLEWIGGIYPNNGGSTYNQNFKDRVTLTADKSTSTAYMELSSLRSEDTAVYYCARMGYHGPHLDFDVWGQGTTVTVSSASTKGPSVFPLAPCSRSTSESTAALGCLVKDYFPEPVTVSWNSGALTSGVHTFPAVLQSSGLYSLSSVVTVPSSNFGTQTYTCNVDHKPSNTKVDKTVERKCCVECPPCPAPPAAASSVFLFPPKPKDTLMISRTPEVTCVVVDVSAEDPEVQFNWYVDGVEVHNAKTKPREEQFNSTFRVVSVLTVLHQDWLNGKEYKCKVSNKGLPSSIEKTISKTKGQPREPQVYTLPPSREEMTKNQVSLTCLVKGFYPSDIAVEWESNGQPENNYKTTPPMLDSDGSFFLYSKLTVDKSRWQQGNVFSCSVMHEALHNHYTQKSLSLSPGKGGGGGSGGGGSGGGGSGGGGSLPAPKNLVVSRVTEDSARLSWTAPDAAFDSFPIAYIEYWTGGEAIVLTVPGSERSYDLTGLKPGTEYFVWIHGVKGGAWSSPLSAIFTT light: DIQMTQSPSSLSASVGDRVTITCKASQDVGAAVAWYQQKPGKAPKLLIYWASTRHTGVPSRFSGSGSGTDFTLTISSLQPEDFATYYCQQYINYPLTFGGGTKVEIKRTVAAPSVFIFPPSDEQLKSGTASVVCLLNNFYPREAKVQWKVDNALQSGNSQESVTEQDSKDSTYSLSSTLTLSKADYEKHKVYACEVTHQGLSSPVTKSFNRGEC |  |  | fold binding signal over OX40SF2IgG2sigma at 10 µg/mL [1]: ≥ 6 fold; EC50 [2]: 0.323 µg/mL; % OX40 cell killed by macrophages (ADCP, 1 µg/ml) [3]: 92%; % activity at 1 µg/ml with Raji cells (HEK-Blue: OX40 NF-κB reporter, relative to 1 µg/ml OX40 ligand) [4]: 103%; fold of agonism enhancement upon crosslinking (Raji cells) [4]: 25 fold; Binding to HEK-Blue: OX40 cells (mean signal at 1 µg/ml) [5]: 10200 mean fluorescence signal; Binding to Raji cells mean signals at 10 µg/ml [6]: 2290 mean fluorescence signal; EC50 [6]: > 10 µg/mL; EC50 [7]: 1.38 µg/mL |
| R2BS29 (designed binder, expressed in E. coli BL21 and purified on nickel sepharose; also called R2BS29 FN3 domain; R2B29) LPAPKNLVVSRVTEDSARLSWTAPDAAFDSFPIYYWEYRVGGEAIVLTVPGSERSYDLTGLKPGTEYFVYINGVKGGEESRPLSAIFTT | 3.57 | 3.22 |  |
| R2BS26 (designed binder, expressed in E. coli BL21 and purified on nickel sepharose; also called R2BS26 FN3 domain) LPAPKNLVVSRVTEDSARLSWTAPDAAFDSFPIAYIEYWTGGEAIVLTVPGSERSYDLTGLKPGTEYFVWIHGVKGGAWSSPLSAIFTT | 5.3 | 6.51 |  |
| R2BS9 (designed binder, expressed in E. coli BL21 and purified on nickel sepharose; also called R2BS9 FN3 domain) LPAPKNLVVSRVTEDSARLSWTAPDAAFDSFWIYYLEYWRGGEAIVLTVPGSERSYDLTGLKPGTEYFVQIHGVKGGQYSYPLSAIFTT | 4.51 | 5.49 |  |
| R2BS6 (designed binder, expressed in E. coli BL21 and purified on nickel sepharose; also called R2BS6 FN3 domain) LPAPKNLVVSRVTEDSARLSWTAPDAAFDSFLIQYQESEKVGEAIVLTVPGSERSYDLTGLKPGTEYTVSIYGVQYAAWYLPRHHEASNPLSAIFTT | 7.59 | 27.3 |  |

Second part, led by results:

| EC50 (FcγRIIB protein) [nM] | EC50 (FcγRIIA protein) [nM] | Binder | also measured |
| --- | --- | --- | --- |
| 7.32 | 5.5 | R2BS56 (designed binder, expressed in E. coli BL21 and purified on nickel sepharose; also called R2BS56 FN3 domain; R2B56) LPAPKNLVVSRVTEDSARLSWTAPDAAFDSFSIAYWEYRKGGEAIVLTVPGSERSYDLTGLKPGTEYFVLIYGVKGGWQSKPLSAIFTT |  |
| 43 | 9.6 | R2BS12 (designed binder, expressed in E. coli BL21 and purified on nickel sepharose; also called R2BS12 FN3 domain; R2B12) LPAPKNLVVSRVTEDSARLSWTAPDAAFDSFLIAYAEYWEGGEAVVLTVPGSERSYDLTGLKPGTEYFVQINGVKGGFWSIPLSAIFTT |  |
| 419 | 15.5 | R2BS39 (designed binder, expressed in E. coli BL21 and purified on nickel sepharose; also called R2BS39 FN3 domain) LPAPKNLVVSRVTEDSARLSWTAPDAAFDSFLIQYQESEKVGEAIVLTVPGSERSYDLTGLKPGTEYTVSIYGVSHGPWYNYGEWRSNPLSAIFTT |  |
